For one substance, mitogenic potency on BaF3 cells expressing FGFR-1c, relative to wild-type FGF-1 (fold against wild-type FGF-1) results are on record in patent US20180265558A1.

This test has as its target FGFR-1c expressed on BaF3 cells. The test can be described thus: cell-based or functional assay.

The substance “modified FGF-1 (S116R mutant protein) (from UniProt P05230 16-155) (ligand)” gave a mitogenic potency on BaF3 cells expressing FGFR-1c, relative to wild-type FGF-1 (fold against wild-type FGF-1) of 10.
